Test results from patent US20230056470A1, “USES OF ANTI-TGF-BETA ANTIBODIES AND CHECKPOINT INHIBITORS FOR THE TREATMENT OF PROLIFERATIVE DISEASES” (NOVARTIS AG, priority 2019, published 2023).

Legend:
[1] = Clinical PK of PDR001 in combination with NIS793, study CNIS793X2101; type: in vivo, human; conditions: 100 or 300 mg Q3W and 400 mg Q4W
[2] = Clinical PK of NIS793, study CNIS793X2101 (single agent and combination with PDR001; escalation and expansion; cycles 1 and 3); type: in vivo, human
[3] = Population PK analysis and model-based simulations of NIS793 (dose escalation phase of CNIS793X2101); design: species or system human
Experimental: This is consistent with the observation that NIS793 PK appears dose proportional and time-independent based on the non-compartmental analyses.
Further a dose of 1400 mg would also match exposure observed at 20 mg/kg.

[4] = Mean, cycle 1, NIS793 0.3 mg/kg Q3W + PDR 100 mg Q3W, escalation
[5] = Mean, cycle 1, NIS793 0.3 mg/kg Q3W + PDR 300 mg Q3W, escalation
[6] = Mean, cycle 1, NIS793 0.3 mg/kg Q3W Liquid, single agent, escalation
[7] = Mean, cycle 1, NIS793 1 mg/kg Q3W + PDR 300 mg Q3W, escalation
[8] = Mean, cycle 1, NIS793 1 mg/kg Q3W Liquid, single agent, escalation
[9] = Mean, cycle 1, NIS793 1 mg/kg Q3W Lyophilisate, single agent, escalation
[10] = Mean, cycle 1, NIS793 3 mg/kg Q3W + PDR 300 mg Q3W, escalation
[11] = Mean, cycle 1, NIS793 10 mg/kg Q3W + PDR 300 mg Q3W, escalation
[12] = Mean, cycle 1, NIS793 20 mg/kg Q2W + PDR 400 mg Q4W, escalation
[13] = Mean, cycle 1, NIS793 30 mg/kg Q2W + PDR 400 mg Q4W, escalation
[14] = Mean, cycle 1, NIS793 30 mg/kg Q3W + PDR 300 mg Q3W, escalation
[15] = cycle 1, NIS793 2100 mg Q3W + PDR 300 mg Q3W, MSS-CRC, expansion, mean
[16] = cycle 1, NIS793 2100 mg Q3W + PDR 300 mg Q3W, NSCLC, expansion, mean
[17] = cycle 3, NIS793 0.3 mg/kg Q3W + PDR 100 mg Q3W, escalation, mean
[18] = cycle 3, NIS793 0.3 mg/kg Q3W + PDR 300 mg Q3W, escalation, mean
[19] = cycle 3, NIS793 0.3 mg/kg Q3W Liquid, single agent, escalation, mean
[20] = cycle 3, NIS793 1 mg/kg Q3W + PDR 300 mg Q3W, escalation, mean
[21] = cycle 3, NIS793 1 mg/kg Q3W Liquid, single agent, escalation, mean
[22] = cycle 3, NIS793 1 mg/kg Q3W Lyophilisate, single agent, escalation, mean
[23] = cycle 3, NIS793 3 mg/kg Q3W + PDR 300 mg Q3W, escalation, mean
[24] = cycle 3, NIS793 10 mg/kg Q3W + PDR 300 mg Q3W, escalation, mean
[25] = cycle 3, NIS793 20 mg/kg Q2W + PDR 400 mg Q4W, escalation, mean
[26] = cycle 3, NIS793 30 mg/kg Q3W + PDR 300 mg Q3W, escalation, mean
[27] = cycle 3, NIS793 2100 mg Q3W + PDR 300 mg Q3W, MSS-CRC, expansion, mean (SD)

## PDR001: anti-PD-1 inhibitor spartalizumab, also known as PDR001 (Novartis)
[1]
  PK of PDR001 in combination with NIS793 versus single agent data: appears to be similar to the single agent data

## NIS793: fully human IgG2, human/mouse cross-reactive, TGF-β-neutralizing antibody; heavy and light chain SEQ ID NOs: 9 and 10
[2]; 30 minute intravenous infusion, 0.3 mg/kg to 30 mg/kg
  Increase in NIS793 exposure (Cycle 1 Cmax and AUClast) with dose: approximately dose-proportional increase
[2]; [4]
  AUClast: 1360000 ng·h/mL
  Clast: 1400 ng/mL
  Cmax: 6440 ng/mL
[2]; [5]
  AUClast: 1700000 ng·h/mL
  Clast: 1530 ng/mL
  Cmax: 11200 ng/mL
[2]; [6]
  AUClast: 1140000 ng·h/mL
  Clast: 1060 ng/mL
  Cmax: 7180 ng/mL
[2]; [7]
  AUClast: 5850000 ng·h/mL
  Clast: 8790 ng/mL
  Cmax: 30800 ng/mL
[2]; [8]
  AUClast: 4170000 ng·h/mL
  Clast: 4320 ng/mL
  Cmax: 24900 ng/mL
[2]; [9]
  AUClast: 4770000 ng·h/mL
  Clast: 4780 ng/mL
  Cmax: 27600.0 ng/mL
[2]; [10]
  AUClast: 11400000 ng·h/mL
  Clast: 14300 ng/mL
  Cmax: 58400 ng/mL
[2]; [11]
  AUClast: 3750000 ng·h/mL
  Clast: 44800 ng/mL
  Cmax: 181000 ng/mL
[2]; [12]
  AUClast: 54500000 ng·h/mL
  Clast: 107000 ng/mL
  Cmax: 333000 ng/mL
[2]; [13]
  AUClast: 69100000 ng·h/mL
  Clast: 154000 ng/mL
  Cmax: 439000 ng/mL
[2]; [14]
  AUClast: 90900000 ng·h/mL
  Clast: 133000 ng/mL
  Cmax: 519000 ng/mL
[2]; [15]
  AUClast: 94700000 ng·h/mL
  Clast: 206000 ng/mL
  Cmax: 547000 ng/mL
[2]; [16]
  AUClast: 140000000 ng·h/mL
  Clast: 180000 ng/mL
  Cmax: 743000 ng/mL
[2]; [17]
  AUClast: 2530000 ng·h/mL
  Clast: 2960 ng/mL
  Cmax: 8990 ng/mL
[2]; [18]
  AUClast: 2960000 ng·h/mL
  Clast: 3330 ng/mL
  Cmax: 11600 ng/mL
[2]; [19]
  AUClast: 1820000 ng·h/mL
  Clast: 1900 ng/mL
  Cmax: 8750 ng/mL
[2]; [20]
  AUClast: 5630000 ng·h/mL
  Clast: 9710 ng/mL
  Cmax: 31300 ng/mL
[2]; [21]
  AUClast: 2910000 ng·h/mL
  Clast: 4290 ng/mL
  Cmax: 9830 ng/mL
[2]; [22]
  AUClast: 4090000 ng·h/mL
  Clast: 6350 ng/mL
  Cmax: 13800 ng/mL
[2]; [23]
  AUClast: 13900000 ng·h/mL
  Clast: 16100 ng/mL
  Cmax: 55200 ng/mL
[2]; [24]
  AUClast: 69200000 ng·h/mL
  Clast: 95900 ng/mL
  Cmax: 220000 ng/mL
[2]; [25]
  AUClast: 149000000 ng·h/mL
  Clast: 154000 ng/mL
  Cmax: 524000 ng/mL
[2]; [26]
  AUClast: 242000000 ng·h/mL
  Clast: 228000 ng/mL
  Cmax: 713000 ng/mL
[2]; [27]
  AUClast: 95500000 (88500000) h*ng/mL
  Clast: 341000 (313000) ng/mL
  Cmax: 590000 (319000) ng/mL
[2]; patients, across dose cohorts
  Between subject variability (CV %) for Cmax: 12.1 to 73.3%
[3]; dose escalation concentration data
  Population PK model that describes NIS793 pharmacokinetics: two compartment model with first order elimination from the central compartment
[3]; population PK model, CV %=40%
  Estimated exponent of body weight as covariate on clearance (power model): 0.55
